Laboratory results from US20020110800.

Biological target: wild-type TrkA, baculovirus-expressed, activated (autophosphorylated) (UniProt P04629)

B1: SHP-2 (enzyme, UniProt Q06124 2-593, looked up, species assumed)
Tyrosine-protein phosphatase non-receptor type 11: TSRRWFHPNITGVEAENLLLTRGVDGSFLARPSKSNPGDFTLSVRRNGAVTHIKIQNTGDYYDLYGGEKFATLAELVQYYMEHHGQLKEKNGDVIELKYPLNCADPTSERWFHGHLSGKEAEKLLTEKGKHGSFLVRESQSHPGDFVLSVRTGDDKGESNDGKSKVTHVMIRCQELKYDVGGGERFDSLTDLVEHYKKNPMVETLGTVLQLKQPLNTTRINAAEIESRVRELSKLAETTDKVKQGFWEEFETLQQQECKLLYSRKEGQRQENKNKNRYKNILPFDHTRVVLHDGDPNEPVSDYINANIIMPEFETKCNNSKPKKSYIATQGCLQNTVNDFWRMVFQENSRVIVMTTKEVERGKSKCVKYWPDEYALKEYGVMRVRNVKESAAHDYTLRELKLSKVGQGNTERTVWQYHFRTWPDHGVPSDPGGVLDFLEEVHHKQESIMDAGPVVVHCSAGIGRTGTFIVIDILIDIIREKGVDCDIDVPKTIQMVRSQRSGMVQTEAQYRFIYMAVQHYIETLQRRIEEEQKSKRKGHEYTNIKYSLADQTSGDQSPLPPCTPTPPCAEMREDSARVYENVGLMQQQKSFR
**Q.** For B1, which “dephosphorylation of 32P-autophosphorylated Trk in vitro” value is on record?
**A.** The value was “approximately 5-fold dephosphorylation”.
